Test results reported in PMC8227628, “DisA Limits RecG Activities at Stalled or Reversed Replication Forks” (Cells, 2021).
One block for each molecule: values may come before it.

Experiments:
[1] = biological target: T1, DisA (Bacillus subtilis, UniProt P37573); test: TLC of conversion to c-di-AMP; format: biochemical; conditions: 10 mM MgCl2, 100 µM ATP, pH 7.5, 37 °C, no DNA; labelled compound
T1 construct: full length, expressed in E. coli BL21(DE3) pLysS; octamer; C-terminal His tag in the pull-down variant
T1 sequence (P37573 1-360): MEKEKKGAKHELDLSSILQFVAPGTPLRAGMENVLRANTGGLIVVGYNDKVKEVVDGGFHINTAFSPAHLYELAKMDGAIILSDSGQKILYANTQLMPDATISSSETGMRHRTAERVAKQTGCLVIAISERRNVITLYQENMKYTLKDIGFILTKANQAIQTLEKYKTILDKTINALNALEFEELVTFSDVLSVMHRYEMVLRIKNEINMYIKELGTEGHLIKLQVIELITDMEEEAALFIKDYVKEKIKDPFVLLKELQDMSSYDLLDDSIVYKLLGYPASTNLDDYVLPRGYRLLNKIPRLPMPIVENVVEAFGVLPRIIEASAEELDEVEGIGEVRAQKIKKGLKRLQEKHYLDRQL

[2] = biological target: T2, DisA (Bacillus subtilis, UniProt P37573 1-360); test: EMSA; 5 mM ATPgS; 37 C; 0.2% glutaraldehyde before loading; apparent Kd; complexes retained in well; EMSA: 0.1 nM HJ-J3 in buffer B (composition not in material) with 5 mM ATPgS, 15 min, 37 C, 0.2% glutaraldehyde before 6% PAGE in TAE; DNase I: buffer C 50 mM Tris-HCl pH 7.5, 1 mM DTT, 50 mM NaCl, 10 mM MgCl2, 0.05 mg/mL BSA, 5% glycerol, 5 mM ATPgS, 37 C; conditions: protein: recombinant; chain copies: 8; label: 32P (gamma-32P, 5' end of one strand); four-way Holliday junction of 4 strands, 1 copy each, heterologous arms
T2 sequence: T1 sequence (P37573 1-360)

[3] = biological target: T3, RecG (Bacillus subtilis, UniProt O34942 1-682); test: EMSA; 5 mM ATPgS; 37 C; 0.2% glutaraldehyde before loading; apparent Kd; G-I and minor G-II complexes; EMSA: 0.1 nM HJ-J3 in buffer B (composition not in material) with 5 mM ATPgS, 15 min, 37 C, 0.2% glutaraldehyde before 6% PAGE in TAE; DNase I: buffer C 50 mM Tris-HCl pH 7.5, 1 mM DTT, 50 mM NaCl, 10 mM MgCl2, 0.05 mg/mL BSA, 5% glycerol, 5 mM ATPgS, 37 C; conditions: protein: recombinant; label: 32P (gamma-32P, 5' end of one strand); four-way Holliday junction of 4 strands, 1 copy each, heterologous arms
T3 sequence: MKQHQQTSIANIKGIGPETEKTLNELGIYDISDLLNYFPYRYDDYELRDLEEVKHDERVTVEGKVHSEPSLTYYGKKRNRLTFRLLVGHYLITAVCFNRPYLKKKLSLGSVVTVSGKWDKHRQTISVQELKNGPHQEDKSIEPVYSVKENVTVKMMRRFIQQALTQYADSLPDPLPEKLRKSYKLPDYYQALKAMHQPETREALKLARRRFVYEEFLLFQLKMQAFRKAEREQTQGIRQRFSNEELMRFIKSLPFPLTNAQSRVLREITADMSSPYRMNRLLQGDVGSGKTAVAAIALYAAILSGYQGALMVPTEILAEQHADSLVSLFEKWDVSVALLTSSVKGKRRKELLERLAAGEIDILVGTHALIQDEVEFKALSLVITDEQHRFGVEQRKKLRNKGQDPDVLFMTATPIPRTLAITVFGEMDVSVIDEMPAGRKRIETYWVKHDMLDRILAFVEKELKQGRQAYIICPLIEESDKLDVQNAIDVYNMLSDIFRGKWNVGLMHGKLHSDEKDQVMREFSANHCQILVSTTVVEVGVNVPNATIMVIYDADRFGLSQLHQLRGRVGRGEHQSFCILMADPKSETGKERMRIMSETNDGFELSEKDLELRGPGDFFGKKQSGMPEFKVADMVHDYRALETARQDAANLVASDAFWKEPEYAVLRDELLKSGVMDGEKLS

[4] = biological target: T4, DisA;RecG (Bacillus subtilis;Bacillus subtilis, UniProt P37573;O34942 1-360;1-682, |); test: DNase I footprinting; 5 mM ATPgS, 10 mM Mg2+; 60 nM RecG with increasing DisA; shorter protection on both sides of junction; ternary complex proposed; EMSA: 0.1 nM HJ-J3 in buffer B (composition not in material) with 5 mM ATPgS, 15 min, 37 C, 0.2% glutaraldehyde before 6% PAGE in TAE; DNase I: buffer C 50 mM Tris-HCl pH 7.5, 1 mM DTT, 50 mM NaCl, 10 mM MgCl2, 0.05 mg/mL BSA, 5% glycerol, 5 mM ATPgS, 37 C; conditions: protein: recombinant;recombinant; tags: ;; chain copies: 8;1; label: 32P (gamma-32P, 5' end of one strand); four-way Holliday junction of 4 strands, 1 copy each, heterologous arms
T4 sequence 1: T1 sequence (P37573 1-360)
T4 sequence 2: T3 sequence

[5] = biological target: T5, His-tagged DisA (B. subtilis, UniProt P37573 1-360); test: cell-based or functional assay
T5 sequence (looked up): T1 sequence (P37573 1-360)

Molecule: Nc1ncnc2c1ncn2[C@@H]1O[C@@H]2COP(=O)(O)O[C@H]3[C@@H](O)[C@H](n4cnc5c(N)ncnc54)O[C@@H]3COP(=O)(O)O[C@H]2[C@H]1O [c-di-AMP]
TLC of [α^32P]-ATP conversion to c-di-AMP [1]: it efficiently converted two ATP molecules into c-di-AMP

B1: HJ-J3 DNA (fixed Holliday junction) (structured_DNA)
DNA 1: CGCAAGCGACAGGAACCTCGAGAAGCTTCCGGTAGCAGCCTGAGCGGTGGTTGAATTCCTCGAGGTTCCTGTCGCTTGCG
DNA 2: CGCAAGCGACAGGAACCTCGAGGAATTCAACCACCGCTCAACTCAACTGCAGTCTAGACTCGAGGTTCCTGTCGCTTGCG
DNA 3: CGCAAGCGACAGGAACCTCGAGTCTAGACTGCAGTTGAGTCCTTGCTAGGACGGATCCCTCGAGGTTCCTGTCGCTTGCG
DNA 4: CGCAAGCGACAGGAACCTCGAGGGATCCGTCCTAGCAAGGGGCTGCTACCGGAAGCTTCTCGAGGTTCCTGTCGCTTGCG
Kd [2]: 17 ± 1 nM
Kd [3]: 4 ± 0.3 nM
binding result [4]: binds

inhibition of the DAC activity (c-di-AMP synthesis) of DisA (25 nM) with HJ-J3 DNA (125 nM) and 100 µM ATP, RecG 7 to 30 nM [5]: ~11 fold
B2: native RecG (natural protein, B. subtilis, UniProt O34942 1-682, looked up)
chain: T3 sequence
